# According to patent US20220073608A1 (JIANGSU HUAIYU PHARMACEUTICAL, published 2022):
# T1: human SEMA4D, full length, on CHO-K1 cells (CHO-K1 hSEMA4D) (human, UniProt Q92854 22-862)
# T1 construct: whole, on cells; also called human SEMA4D recombinant cells
# T1 sequence (looked up): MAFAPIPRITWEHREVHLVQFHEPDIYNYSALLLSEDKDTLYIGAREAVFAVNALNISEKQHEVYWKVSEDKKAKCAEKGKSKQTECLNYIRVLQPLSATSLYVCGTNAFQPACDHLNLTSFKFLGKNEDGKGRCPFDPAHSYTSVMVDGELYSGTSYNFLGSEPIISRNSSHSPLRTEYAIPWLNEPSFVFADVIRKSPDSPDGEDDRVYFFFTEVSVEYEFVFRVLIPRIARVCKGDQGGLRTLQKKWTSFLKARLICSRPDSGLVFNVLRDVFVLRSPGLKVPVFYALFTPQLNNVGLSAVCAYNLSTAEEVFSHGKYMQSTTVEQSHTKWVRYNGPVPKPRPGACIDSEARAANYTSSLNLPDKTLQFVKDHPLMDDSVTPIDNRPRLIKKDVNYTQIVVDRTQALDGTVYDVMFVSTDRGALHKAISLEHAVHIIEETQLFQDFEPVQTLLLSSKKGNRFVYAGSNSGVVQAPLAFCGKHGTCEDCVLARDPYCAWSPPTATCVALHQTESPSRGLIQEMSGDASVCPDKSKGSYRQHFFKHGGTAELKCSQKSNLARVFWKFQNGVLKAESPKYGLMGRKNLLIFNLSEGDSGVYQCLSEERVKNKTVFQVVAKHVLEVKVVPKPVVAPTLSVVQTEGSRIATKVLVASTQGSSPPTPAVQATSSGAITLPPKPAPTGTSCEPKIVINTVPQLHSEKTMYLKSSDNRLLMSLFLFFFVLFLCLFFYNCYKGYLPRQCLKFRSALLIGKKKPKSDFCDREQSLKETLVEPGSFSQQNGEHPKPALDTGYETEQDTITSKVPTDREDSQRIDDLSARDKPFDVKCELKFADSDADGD
# T2: mouse SEMA4D, full length, on CHO-K1 cells (CHO-K1 mSEMA4D) (mouse, UniProt O09126 24-861)
# T2 construct: whole, on cells; also called murine SEMA4D recombinant cells
# T2 sequence (looked up): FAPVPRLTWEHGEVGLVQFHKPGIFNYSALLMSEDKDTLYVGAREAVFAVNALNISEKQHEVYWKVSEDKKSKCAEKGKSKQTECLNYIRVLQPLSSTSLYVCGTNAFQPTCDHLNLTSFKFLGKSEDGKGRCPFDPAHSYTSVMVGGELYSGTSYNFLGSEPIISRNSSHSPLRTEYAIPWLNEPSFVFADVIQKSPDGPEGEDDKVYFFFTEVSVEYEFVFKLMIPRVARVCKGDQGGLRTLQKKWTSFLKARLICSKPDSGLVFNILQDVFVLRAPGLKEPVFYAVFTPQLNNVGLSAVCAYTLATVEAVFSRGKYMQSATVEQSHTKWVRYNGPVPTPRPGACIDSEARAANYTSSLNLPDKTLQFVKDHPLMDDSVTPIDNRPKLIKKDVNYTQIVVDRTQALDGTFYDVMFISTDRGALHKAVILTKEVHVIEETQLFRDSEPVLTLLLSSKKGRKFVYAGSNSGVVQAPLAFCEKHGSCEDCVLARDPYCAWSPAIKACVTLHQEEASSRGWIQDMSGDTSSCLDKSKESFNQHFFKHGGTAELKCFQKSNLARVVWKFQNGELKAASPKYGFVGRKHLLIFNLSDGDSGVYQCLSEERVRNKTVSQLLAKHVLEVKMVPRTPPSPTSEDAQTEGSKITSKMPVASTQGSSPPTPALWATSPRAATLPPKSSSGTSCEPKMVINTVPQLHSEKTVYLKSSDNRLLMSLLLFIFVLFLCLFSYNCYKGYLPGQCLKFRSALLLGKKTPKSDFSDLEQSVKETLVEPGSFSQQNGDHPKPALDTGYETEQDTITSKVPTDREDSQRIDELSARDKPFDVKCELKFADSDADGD
# Columns and labels:
# [1] = target: T3, monkey SEMA4D, full length, on CHO-K1 cells (CHO-K1 cSEMA4D) (monkey); experiment: FACS, CHO-K1 cSEMA4D cells; Ab 2.67 nM
# T3 construct: whole, on cells; also called monkey SEMA4D recombinant cells
# Experimental: (§1) After the cells were counted, they were diluted with PBS to 2×10⁶ cells per milliliter. After washing, 100 μL of diluted and purified leading antibodies was added to each well and the plate was incubated for 1 hour on ice. […] Cells were washed 2 times by centrifugation with FACS buffer. The cells were suspended with 200 μL of FACS buffer, FACS (FACS Verse, purchased from BD) was used to detect and analyze the results.
# [2] = target: T1, human SEMA4D, full length, on CHO-K1 …; experiment: FACS, CHO-K1 hSEMA4D cells; Ab 0.107 nM
# Experimental: The medium was aspirated, the cells were washed once with PBS buffer (purchased from Invitrogen), and then treated with cell dissociation fluid (TrypLE™ Express Enzyme, purchased from Life technology), and the cells were collected. After the cells counted, the cells were washed once with PBS phosphate buffer, and diluted to 3×10⁶ cells per milliliter, and added to the 96-well FACS reaction plate as 100 μL per well. 2% (w/w) fetal calf serum was added to PBS phosphate buffer as FACS buffer, with which the cells were washed once by centrifugation at 2000 rpm 4° C. 100 μL of diluted and purified leading antibodies was added to each well and the plate was incubated for 1 hour on ice. […] Cells were washed 2 times by centrifugation with FACS buffer. The cells were suspended with 200 μL of FACS buffer, and FACS (FACS Verse, purchased from BD) was used to detect and analyze the results.
# [3] = target: T3, monkey SEMA4D, full length, on CHO-K1 …; experiment: FACS, CHO-K1 cSEMA4D cells; Ab 13.3 nM
# Experimental: as §1
# [4] = target: T2, mouse SEMA4D, full length, on CHO-K1 …; experiment: FACS, CHO-K1 mSEMA4D cells; Ab 0.534 nM
# Experimental: as §1
Binder,MFI [1],MFI [2],MFI [3],MFI [4]
"37C4F7 (antibody, V domains shown, Mouse monoclonal antibody purified from hybridoma supernatant on protein A) VH: EFQLQQSGPEVVKPGASVKISCKASGYSFTDYNMNWMKQSKGKSLEWIGVINPNYGTTTYNQNFKGKATLTVDQSSSTAYMQLNSLTSEDSAVYYCARDMYYVYAYYTMDYWGQGTSVTVSS VL: DVVMTQTPLSLPVSLGDQASISCRSSQSLVHSNGHTYLHWYLQRPGQSPTLLIYKVSNRFSGVPDRFSGSGSGTDFTLKISRVEAEDLGVYFCSQGTHVPWTFGGGTKLEIK",1940,210,2790,29.2
"38H2E3 (antibody, V domains shown, Mouse monoclonal antibody purified from hybridoma supernatant on protein A) VH: EFQLQQSGPEVVKPGASVKISCKASGYSFTDYNMNWMKQSKGKSLEWIGVISPDYGTTTYNQNFKDKATLTVDQSSSTAYMQLNSLTSEDSAVYYCAKDMYYVYAYYTMDYWGHGTSVTVSS VL: DVVMTQTPLSLPVSLGDQASISCRSSQSLVHSNGHTYLHWYLQRPGQSPTLLIYKVSNRFSGVPDRVSGSGSGTDFTLKISRVEAEDLGVYFCSQGTHVPRTFGGGTKLEIK",1750,215,2800,29.5
"32C8F10 (antibody, V domains shown, Mouse monoclonal antibody purified from hybridoma supernatant on protein A) VH: EVQLQQSGAELVRPGASVKLSCTASGFNIKDEYIHWVKQRPEQGLEWIGWIDPANGHTEYASRFQAKATITADTSSNTAYLQLSSLTSEDTAVYYCTTGDYDGFAYWGQGTLVTVST VL: QIVLTQSPAIMSASPGEKVTISCSARSSVSYMYWYQQKPGSSPKPWIYRTSNLASGVPARFSGSGSGTSYSLTISSMEAEDAATYYCQHYHTYPYTFGGGTKLEIK",4920,832,5590,29.8
"31C11G2 (antibody, V domains shown, Mouse monoclonal antibody purified from hybridoma supernatant on protein A) VH: EVQLQQSGAELVRPGASVKLSCTASGFNIKDEYIHWVKQRPEQGLEWIGWIDPANGHTEYASRFQAKATITADTSSNTAYLQLSSLTSEDTAVYYCTTGDYDGFVYWGQGTLVTVST VL: QIVLTQSPAIMSASPGEKVTIFCSARSSVSYMYWYQQKPGSSPKPWIYRTSNLASGVPARFSGSGSGTSYSLTISSMEAEDAATYYCQHYHTYPYTFGGGTKLEIK",4420,906,4390,30.7
"31G10C5 (antibody, V domains shown, Mouse monoclonal antibody purified from hybridoma supernatant on protein A) VH: EVQLQQSGAELVRPGASVKLSCTASGFNIKDDYIHWVKQRPEQGLEWIGWIDPANGHIEYASNFQAKATITADTSSNTAYLQLSSLTSEDTAVYYCTTGDYDGFTYWGQGTLVTVST VL: QIVLTQSPAIMSASPGEKVTISCSARSSVSYMYWYQQKPGSSPKPWIYRTSNLASGVPARFSGSGSGTSYSLTISSMEAEDAATYYCQHYHTYPYTFGGGTKLEIK",4540,855,4580,30.3
"37F11F9 (antibody, V domains shown, Mouse monoclonal antibody purified from hybridoma supernatant on protein A) VH: EVQLQQSGPVLVKPGASVKMSCKASGYTFTDYYMNWVKQSHGKSLEWIGLINPYSGGSTFNQKFKAKATLTVDKSSSSAYMDLNSLTSEDSAVYYCARVGDGYYGVTHGMDYWGQGTSVTVSS VL: DIVMTPSQKFMSTTVGDRVSITCKASQNVGTAVAWYQQKPGQSPTILIYSASNRYTGVPDRFTGSGSGTDFTLTISNMKSEDLADYFCQQYYIYPFTFAAGTKLELK",2170,308,2480,30.9
"42B7G2 (antibody, V domains shown, Mouse monoclonal antibody purified from hybridoma supernatant on protein A) VH: QVQLQQSGAELARPGASVKLSCKASGYTFTDYGISWVKQRTGQGLEWIGEIYLRNDNSYYNEKFKGKATLTADKSSNTAYMELRSLTSEDSAVYFCARWGDHGNNYEDAMDYWGQGTSVTVSS VL: DIVLTQSPASLAMSLGKRATISCRASESVSIIGSNLIHWYQQKPGQPPKLLIYHASNLETGVPARFSGSGSRTDFTLTIDPVEEDDVAIYYCLQSRKVPYTFGGGTKLEIK",2640,598,2590,31.7
